# B1: mIL-2 (ligand, murine, UniProt P04351 21-169, looked up)
# chain: APTSSSTSSSTAEAQQQQQQQQQQQQHLEQLLMDLQELLSRMENYRNLKLPRMLTFKFYLPKQATELKDLQCLEDELGPLRHVLDLTQSKSFQLEDAENFISNIRVTVVKLKGSDNTFECQFDDESATVVDFLRRWIAFCQSIISTSPQ
# B2: mIL-7 (ligand, murine, UniProt P10168 26-154, looked up)
# chain: ECHIKDKEGKAYESVLMISIDELDKMTGTDSNCPNNEPNFFRKHVCDDTKEAAFLNRAARKLKQFLKMNISEEFNVHLLTVSQGTQTLVNCTSKEEKNVKEQKKNDACFLKRLLREIKTCWNKILKGSI
# Biological target: T1, human MU-1 Ig fusion protein (human, UniProt Q9HBE5 20-235)
# T1 construct: also called MUFc; IL-21R; not shown: Ig part of the fusion protein
# Test: Biacore, MU-1 Ig fusion protein immobilized on chip
# Protocol: Both human and murine Ig fusion proteins were constructed and immobilized on Biacore chips in an effort to identify the ligand for MU-1. A variety of cell culture conditioned media as well as a panel of known cytokines were evaluated for binding to MU-1. Some cytokines were also tested in combination with other receptor chains in the family to consider the possibility that MU-1 may require a second receptor chain for ligand binding. The following cytokines were tested and found to be negative for MU-1 binding: mIL-2, hIL-2, hIL-15, mIL-7, TSLP, TSLP+IL-7, TSLP+IL-7R, TSLP+IL-7g, TSLP+IL-2, TSLP+IL-2+IL-2Rbeta, IL2-Rbeta, IL-2Rgamma, IL-7R, IL-2+IL-2Rbeta, IL-2+IL-2Rgamma, IL-15+IL-2Rbeta, IL-15+IL-2Rgamma, IL-7+IL-2Rgamma, IL-2+IL-7R, IL-15+IL-7R, IL-7+IL-7R. Known receptors have been immobilized as well and tested for MUFc binding with negative results. IL-15 will bind to IL-2Rb but not IL-2Rg or MUFc.
# T1 sequence (Q9HBE5 20-235): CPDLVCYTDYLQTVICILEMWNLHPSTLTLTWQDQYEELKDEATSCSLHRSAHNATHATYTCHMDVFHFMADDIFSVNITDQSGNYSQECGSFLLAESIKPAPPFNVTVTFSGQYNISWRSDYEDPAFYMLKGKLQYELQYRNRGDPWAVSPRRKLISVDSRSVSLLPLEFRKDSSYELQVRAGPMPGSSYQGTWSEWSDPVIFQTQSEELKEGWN
row,Binder,binding result
1,B1,no binding
2,B2,no binding

# Reference: patent publication US20080241098A1 (Pfizer, published 2008)
